As a reminder, the Km is the substrate concentration at which the rate is half of its maximum. For orientation: kcat means the maximal rate divided by the concentration of active sites. By kcat/Km is commonly meant the second-order rate constant that governs catalysis at low substrate concentration.

Type in all cases: biochemical, E. coli
Substrate in data set [1]: CCCCC(O)(CC(=O)O)C(=O)O
Kind of data set: Kinetic analysis of LeuCD (LeuB-coupled HTP assay), Variant 6. The conditions noted are these: other: 2-BM 0-5 mM, pH 8, room temperature, 30 min.

Substrate in data set [2]: CCCCCCC(O)(CC(=O)O)C(=O)O
The data set is described as above. To be noted: other: 2-HM 0-1.6 mM, pH 8, room temperature, 30 min.

Substrate in data set [3]: CCCCC(O)(CC(=O)O)C(=O)O
Briefly: Kinetic analysis of LeuCD (LeuB-coupled HTP assay), Variant 59. To be noted: other: 2-BM 0-5 mM, pH 8, room temperature, 30 min.

Substrate in data set [4]: CCCCCCC(O)(CC(=O)O)C(=O)O
The data set is described as above. The conditions noted are these: other: 2-HM 0-1.6 mM, pH 8, room temperature, 30 min.

Substrate in data set [5]: CCCCC(O)(CC(=O)O)C(=O)O
Kind of data set: Kinetic analysis of LeuCD (LeuB-coupled HTP assay), Variant 5. To be noted: other: 2-BM 0-5 mM, pH 8, room temperature, 30 min.

Substrate in data set [6]: CCCCCCC(O)(CC(=O)O)C(=O)O
The data set is described as above. To be noted: other: 2-HM 0-1.6 mM, pH 8, room temperature, 30 min.

Substrate in data set [7]: CCCCC(O)(CC(=O)O)C(=O)O
Briefly: Kinetic analysis of LeuCD (LeuB-coupled HTP assay), Variant 9. The conditions noted are these: other: 2-BM 0-5 mM, pH 8, room temperature, 30 min.

Substrate in data set [8]: CCCCCCC(O)(CC(=O)O)C(=O)O
The data set is described as above. To be noted: other: 2-HM 0-1.6 mM, pH 8, room temperature, 30 min.

Substrate in data set [9]: CCCCC(O)(CC(=O)O)C(=O)O
Kind of data set: Kinetic analysis of LeuCD (LeuB-coupled HTP assay), Variant 1. The conditions noted are these: other: 2-BM 0-5 mM, pH 8, room temperature, 30 min.

Substrate in data set [10]: CCCCCCC(O)(CC(=O)O)C(=O)O
The data set is described as above. To be noted: other: 2-HM 0-1.6 mM, pH 8, room temperature, 30 min.

Substrate in data set [11]: CCCCC(O)(CC(=O)O)C(=O)O
Kind of data set: Kinetic analysis of LeuCD (LeuB-coupled HTP assay), Variant 61. To be noted: other: 2-BM 0-5 mM, pH 8, room temperature, 30 min.

Substrate in data set [12]: CCCCCCC(O)(CC(=O)O)C(=O)O
Described as above. To be noted: other: 2-HM 0-1.6 mM, pH 8, room temperature, 30 min.

B1: E. coli isopropylmalate isomerase LeuCD complex, Variant 6 (wt LeuC + L31G-LeuD; parents SEQ ID NO: 1 and SEQ ID NO: 2) (Escherichia coli K-12; L31G) (protein)
chain 1: MGSSHHHHHHSSGMAKTLYEKLFDAHVVYEAENETPLLYIDRHLVHEVTSPQAFDGLRAHGRPVRQPGKTFATMDHNVSTQTKDINACGEMARIQMQELIKNCKEFGVELYDLNHPYQGIVHVMGPEQGVTLPGMTIVCGDSHTATHGAFGALAFGIGTSEVEHVLATQTLKQGRAKTMKIEVQGKAAPGITAKDIVLAIIGKTGSAGGTGHVVEFCGEAIRDLSMEGRMTLCNMAIEMGAKAGLVAPDETTFNYVKGRLHAPKGKDFDDAVAYWKTLQTDEGATFDTVVTLQAEEISPQVTWGTNPGQVISVNDNIPDPASFADPVERASAEKALAYMGLKPGIPLTEVAIDKVFIGSCTNSRIEDLRAAAEIAKGRKVAPGVQALVVPGSGPVKAQAEAEGLDKIFIEAGFEWRLPGCSMCLAMNNDRLNPGERCASTSNRNFEGRQGRGGRTHLVSPAMAAAAAVTGHFADIRNIK
chain 2: MAEKFIKHTGLVVPLDAANVDTDAIIPKQFGQKVTRTGFGAHLFNDWRFLDEKGQQPNPDFVLNFPQYQGASILLARENFGCGSSREHAPWALTDYGFKVVIAPSFADIFYGNSFNNQLLPVKLSDAEVDELFALVKANPGIHFDVDLEAQEVKAGEKTYRFTIDAFRRHCMMNGLDSIGLTLQHDDAIAAYEAKQPAFMN
notes: expression of a His-tagged LeuC having 13 additional amino acids on the N-terminus; made in house; host or cells: E. coli BL21(DE3), whole cell lysate
As for B1, in data set [1], the Km amounted to 8440 ± 2400 µM, the kcat was found to be 0.132 ± 0.0333 s⁻¹ and the kcat/Km stood at 17.2 ± 6.67 M⁻¹ s⁻¹. In data set [2], the Km amounted to 650 ± 40 µM, the kcat turned out to be 0.3436 ± 0.00944 s⁻¹ and the kcat/Km is 532.5 ± 35.8 M⁻¹ s⁻¹.

B2: E. coli isopropylmalate isomerase LeuCD complex, Variant 59 (wt LeuC + L31V/H88A-LeuD; parents SEQ ID NO: 1 and SEQ ID NO: 2) (Escherichia coli K-12; H88A/L31V) (protein)
chain 1: MGSSHHHHHHSSGMAKTLYEKLFDAHVVYEAENETPLLYIDRHLVHEVTSPQAFDGLRAHGRPVRQPGKTFATMDHNVSTQTKDINACGEMARIQMQELIKNCKEFGVELYDLNHPYQGIVHVMGPEQGVTLPGMTIVCGDSHTATHGAFGALAFGIGTSEVEHVLATQTLKQGRAKTMKIEVQGKAAPGITAKDIVLAIIGKTGSAGGTGHVVEFCGEAIRDLSMEGRMTLCNMAIEMGAKAGLVAPDETTFNYVKGRLHAPKGKDFDDAVAYWKTLQTDEGATFDTVVTLQAEEISPQVTWGTNPGQVISVNDNIPDPASFADPVERASAEKALAYMGLKPGIPLTEVAIDKVFIGSCTNSRIEDLRAAAEIAKGRKVAPGVQALVVPGSGPVKAQAEAEGLDKIFIEAGFEWRLPGCSMCLAMNNDRLNPGERCASTSNRNFEGRQGRGGRTHLVSPAMAAAAAVTGHFADIRNIK
chain 2: MAEKFIKHTGLVVPLDAANVDTDAIIPKQFVQKVTRTGFGAHLFNDWRFLDEKGQQPNPDFVLNFPQYQGASILLARENFGCGSSREAAPWALTDYGFKVVIAPSFADIFYGNSFNNQLLPVKLSDAEVDELFALVKANPGIHFDVDLEAQEVKAGEKTYRFTIDAFRRHCMMNGLDSIGLTLQHDDAIAAYEAKQPAFMN
notes: as for B1
For the protein B2, in data set [3], the Km is 2700 ± 400 µM, the kcat worked out at 0.0606 ± 0.00611 s⁻¹ and the kcat/Km was found to be 23.1 ± 3.89 M⁻¹ s⁻¹. In data set [4], the Km was 3800 ± 900 µM, the kcat worked out at 0.0506 ± 0.0103 s⁻¹ and the kcat/Km is 13.9 ± 4.44 M⁻¹ s⁻¹.

B3: E. coli isopropylmalate isomerase LeuCD complex, Variant 5 (wt LeuC + L31A-LeuD; parents SEQ ID NO: 1 and SEQ ID NO: 2) (Escherichia coli K-12; L31A) (protein)
chain 1: MGSSHHHHHHSSGMAKTLYEKLFDAHVVYEAENETPLLYIDRHLVHEVTSPQAFDGLRAHGRPVRQPGKTFATMDHNVSTQTKDINACGEMARIQMQELIKNCKEFGVELYDLNHPYQGIVHVMGPEQGVTLPGMTIVCGDSHTATHGAFGALAFGIGTSEVEHVLATQTLKQGRAKTMKIEVQGKAAPGITAKDIVLAIIGKTGSAGGTGHVVEFCGEAIRDLSMEGRMTLCNMAIEMGAKAGLVAPDETTFNYVKGRLHAPKGKDFDDAVAYWKTLQTDEGATFDTVVTLQAEEISPQVTWGTNPGQVISVNDNIPDPASFADPVERASAEKALAYMGLKPGIPLTEVAIDKVFIGSCTNSRIEDLRAAAEIAKGRKVAPGVQALVVPGSGPVKAQAEAEGLDKIFIEAGFEWRLPGCSMCLAMNNDRLNPGERCASTSNRNFEGRQGRGGRTHLVSPAMAAAAAVTGHFADIRNIK
chain 2: MAEKFIKHTGLVVPLDAANVDTDAIIPKQFAQKVTRTGFGAHLFNDWRFLDEKGQQPNPDFVLNFPQYQGASILLARENFGCGSSREHAPWALTDYGFKVVIAPSFADIFYGNSFNNQLLPVKLSDAEVDELFALVKANPGIHFDVDLEAQEVKAGEKTYRFTIDAFRRHCMMNGLDSIGLTLQHDDAIAAYEAKQPAFMN
notes: as for B1
As to B3, in data set [5], the Km came to 1310 ± 140 µM, the kcat amounted to 0.3889 ± 0.0214 s⁻¹ and the kcat/Km is 299.2 ± 35.8 M⁻¹ s⁻¹. In data set [6], the Km was 1400 ± 600 µM, the kcat turned out to be 0.00972 ± 0.0014 s⁻¹ and the kcat/Km was 8.06 ± 3.61 M⁻¹ s⁻¹.

B4: E. coli isopropylmalate isomerase LeuCD complex, Variant 9 (V35A-LeuC + L31G-LeuD; parents SEQ ID NO: 1 and SEQ ID NO: 2) (Escherichia coli K-12; L31G/V35A) (protein)
chain 1: MGSSHHHHHHSSGMAKTLYEKLFDAHVVYEAENETPLLYIDRHLVHEATSPQAFDGLRAHGRPVRQPGKTFATMDHNVSTQTKDINACGEMARIQMQELIKNCKEFGVELYDLNHPYQGIVHVMGPEQGVTLPGMTIVCGDSHTATHGAFGALAFGIGTSEVEHVLATQTLKQGRAKTMKIEVQGKAAPGITAKDIVLAIIGKTGSAGGTGHVVEFCGEAIRDLSMEGRMTLCNMAIEMGAKAGLVAPDETTFNYVKGRLHAPKGKDFDDAVAYWKTLQTDEGATFDTVVTLQAEEISPQVTWGTNPGQVISVNDNIPDPASFADPVERASAEKALAYMGLKPGIPLTEVAIDKVFIGSCTNSRIEDLRAAAEIAKGRKVAPGVQALVVPGSGPVKAQAEAEGLDKIFIEAGFEWRLPGCSMCLAMNNDRLNPGERCASTSNRNFEGRQGRGGRTHLVSPAMAAAAAVTGHFADIRNIK
chain 2: MAEKFIKHTGLVVPLDAANVDTDAIIPKQFGQKVTRTGFGAHLFNDWRFLDEKGQQPNPDFVLNFPQYQGASILLARENFGCGSSREHAPWALTDYGFKVVIAPSFADIFYGNSFNNQLLPVKLSDAEVDELFALVKANPGIHFDVDLEAQEVKAGEKTYRFTIDAFRRHCMMNGLDSIGLTLQHDDAIAAYEAKQPAFMN
notes: as for B1
Turning to B4, in [7], the kcat/Km amounted to 0.56 ± 0 M⁻¹ s⁻¹. In addition, in [8], the Km worked out at 600 ± 34 µM, the kcat turned out to be 0.0461 ± 0.0014 s⁻¹ and the kcat/Km turned out to be 78.6 ± 5 M⁻¹ s⁻¹.

B5: E. coli isopropylmalate isomerase LeuCD complex, Variant 1 (V35A-LeuC + wt LeuD; parents SEQ ID NO: 1 and SEQ ID NO: 2) (Escherichia coli K-12; V35A) (protein)
chain 1: MGSSHHHHHHSSGMAKTLYEKLFDAHVVYEAENETPLLYIDRHLVHEATSPQAFDGLRAHGRPVRQPGKTFATMDHNVSTQTKDINACGEMARIQMQELIKNCKEFGVELYDLNHPYQGIVHVMGPEQGVTLPGMTIVCGDSHTATHGAFGALAFGIGTSEVEHVLATQTLKQGRAKTMKIEVQGKAAPGITAKDIVLAIIGKTGSAGGTGHVVEFCGEAIRDLSMEGRMTLCNMAIEMGAKAGLVAPDETTFNYVKGRLHAPKGKDFDDAVAYWKTLQTDEGATFDTVVTLQAEEISPQVTWGTNPGQVISVNDNIPDPASFADPVERASAEKALAYMGLKPGIPLTEVAIDKVFIGSCTNSRIEDLRAAAEIAKGRKVAPGVQALVVPGSGPVKAQAEAEGLDKIFIEAGFEWRLPGCSMCLAMNNDRLNPGERCASTSNRNFEGRQGRGGRTHLVSPAMAAAAAVTGHFADIRNIK
chain 2: MAEKFIKHTGLVVPLDAANVDTDAIIPKQFLQKVTRTGFGAHLFNDWRFLDEKGQQPNPDFVLNFPQYQGASILLARENFGCGSSREHAPWALTDYGFKVVIAPSFADIFYGNSFNNQLLPVKLSDAEVDELFALVKANPGIHFDVDLEAQEVKAGEKTYRFTIDAFRRHCMMNGLDSIGLTLQHDDAIAAYEAKQPAFMN
notes: as for B1
Take B5: in data set [9], the Km stood at 3900 ± 700 µM, the kcat amounted to 0.151 ± 0.0231 s⁻¹ and the kcat/Km was 40.3 ± 9.44 M⁻¹ s⁻¹. Moreover, in data set [10], the Km was determined as 3350 ± 750 µM, the kcat came out at 0.0872 ± 0.0153 s⁻¹ and the catalytic efficiency (kcat/Km) turned out to be 27.2 ± 7.78 M⁻¹ s⁻¹.

B6: E. coli isopropylmalate isomerase LeuCD complex, Variant 61 (wt LeuC + L31G/H88A-LeuD; parents SEQ ID NO: 1 and SEQ ID NO: 2) (Escherichia coli K-12; H88A/L31G) (protein)
chain 1: MGSSHHHHHHSSGMAKTLYEKLFDAHVVYEAENETPLLYIDRHLVHEVTSPQAFDGLRAHGRPVRQPGKTFATMDHNVSTQTKDINACGEMARIQMQELIKNCKEFGVELYDLNHPYQGIVHVMGPEQGVTLPGMTIVCGDSHTATHGAFGALAFGIGTSEVEHVLATQTLKQGRAKTMKIEVQGKAAPGITAKDIVLAIIGKTGSAGGTGHVVEFCGEAIRDLSMEGRMTLCNMAIEMGAKAGLVAPDETTFNYVKGRLHAPKGKDFDDAVAYWKTLQTDEGATFDTVVTLQAEEISPQVTWGTNPGQVISVNDNIPDPASFADPVERASAEKALAYMGLKPGIPLTEVAIDKVFIGSCTNSRIEDLRAAAEIAKGRKVAPGVQALVVPGSGPVKAQAEAEGLDKIFIEAGFEWRLPGCSMCLAMNNDRLNPGERCASTSNRNFEGRQGRGGRTHLVSPAMAAAAAVTGHFADIRNIK
chain 2: MAEKFIKHTGLVVPLDAANVDTDAIIPKQFGQKVTRTGFGAHLFNDWRFLDEKGQQPNPDFVLNFPQYQGASILLARENFGCGSSREAAPWALTDYGFKVVIAPSFADIFYGNSFNNQLLPVKLSDAEVDELFALVKANPGIHFDVDLEAQEVKAGEKTYRFTIDAFRRHCMMNGLDSIGLTLQHDDAIAAYEAKQPAFMN
notes: as for B1
On to B6, for which the figures for the kcat/Km in data set [11] and in data set [12] were 0.278 ± 0 M⁻¹ s⁻¹ and 6.11 ± 0.56 M⁻¹ s⁻¹, respectively.

The record behind these values is patent US11898181B2, “Genetically modified isopropylmalate isomerase enzyme complexes and processes to prepare elongated 2-ketoacids and C5-C10 compounds therewith” (Dow Global Technologies LLC, priority 2017, dated 2022).
